In patent US20170174700A1:

Columns and labels:
streptavidin [1] = target: streptavidin (UniProt P22629); experiment: BLI (Octet), streptavidin biosensor tips, conjugate in solution, 25 C
streptavidin [2] = target: streptavidin (UniProt P22629); experiment: release from streptavidin beads by biotin
streptavidin [3] = target: streptavidin (UniProt P22629); experiment: release from M280 Streptavidin Dynabeads by 5 mM biotin or bis-biotin, fluorescence of supernatant

streptavidin, sequence (P22629 37-163 limits assumed): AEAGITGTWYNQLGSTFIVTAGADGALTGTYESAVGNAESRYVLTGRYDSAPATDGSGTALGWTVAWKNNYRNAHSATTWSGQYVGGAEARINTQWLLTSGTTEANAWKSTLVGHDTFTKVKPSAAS

| Substance | Kd (streptavidin [1]) [pM] | koff (streptavidin [1]) [s⁻¹] | kon (streptavidin [1]) [M⁻¹ s⁻¹] | Detach. (streptavidin [2]) [%] | Detachment (streptavidin [3]) [%] |
| --- | --- | --- | --- | --- | --- |
| Biotin-Ab (antibody) | 0.00595 | 1.43e-07 | 2.41e+07 | 0 |  |
| 18-Ab (goat anti-mouse IgG linked to biotin derivative 18) (antibody) |  |  |  |  | 85 |
| DSB-X-Ab (goat anti-mouse IgG linked to DSB-X) (antibody) |  |  |  |  | 16 |
